Measurements reported in article PMC12102759.

B1: RNF115 peptide 69-84 (E3 ubiquitin-protein ligase RNF115), 16-mer library wild type / MDM2 SWIB (MDM2 SWIB/MDM2 domain, residues 17-125) (parent)
chain 1: THFAELWGHLDHTMFF
chain 2: SQIPASEQETLVRPKPLLLKLLKSVGAQKDTYTMKEVLFYLGQYIMTKRLYDEKQQHIVYCSNDLLGDLFGVPSFSVKEHRKIYTMIYRNLVVVNQQESSDSGTSVSEN
B2: AMOTL2 peptide 64-79 (Angiomotin-like protein 2), 16-mer library wild type / TNKS ANK (TNKS 12 ANK repeats, residues 174-649) (parent)
chain 1: QVLQQATRQEPQGQEH
chain 2: TGVPAVSGALRELLEACRNGDVSRVKRLVDAANVNAKDMAGRKSSPLHFAAGFGRKDVVEHLLQMGANVHARDDGGLIPLHNACSFGHAEVVSLLLCQGADPNARDNWNYTPLHEAAIKGKIDVCIVLLQHGADPNIRNTDGKSALDLADPSAKAVLTGEYKKDELLEAARSGNEEKLMALLTPLNVNCHASDGRKSTPLHLAAGYNRVRIVQLLLQHGADVHAKDKGGLVPLHNACSYGHYEVTELLLKHGACVNAMDLWQFTPLHEAASKNRVEVCSLLLSHGADPTLVNCHGKSAVDMAPTPELRERLTYEFKGHSLLQAAREADLAKVKKTLALEIINFKQPQSHETALHCAVASLHPKRKQVTELLLRKGANVNEKNKDFMTPLHVAAERAHNDVMEVLHKHGAKMNALDTLGQTALHRAALAGHLQTCRLLLSYGSDPSIISLQGFTAAQMGNEAVQQILSESTPIRTSD
B3: PIP5K1C peptide 642-657 (Phosphatidylinositol 4-phosphate 5-kinase type-1 gamma), 16-mer library wild type / TLN1 PTB (TLN1 Phosphotyrosine-binding (PTB) domain, residues 309-401) (parent)
chain 1: TDERSWVYSPLHYSAQ
chain 2: GVSFFLVKEKMKGKNKLVPRLLGITKECVMRVDEKTKEVIQEWNLTNIKRWAASPKSFTLDFGDYQDGYYSVQTTEGEQIAQLIAGYIDIILK
B4: ATXN2 peptide 911-926 (Ataxin-2), 16-mer library wild type / PABPC1 PABC (PABPC1 PABC domain, residues 544-623) (parent)
chain 1: KSTLNPNAKEFNPRSF
chain 2: PLTASMLASAPPQEQKQMLGERLFPLIQAMHPTLAGKITGMLLEIDNSELLHMLESPESLRSKVDEAVAVLQAHQAKEAA
B5: MXI1 peptide 6-21 (Max-interacting protein 1), 16-mer library wild type / SIN3A PAH2 (SIN3A PAH domain, residues 295-383) (parent)
chain 1: MINVQRLLEAAEFLER
chain 2: SLQNNQPVEFNHAINYVNKIKNRFQGQPDIYKAFLEILHTYQKEQRNAKEAGGNYTPALTEQEVYAQVARLFKNQEDLLSEFGQFLPDA

Variants of: B1
Assay: proteomic peptide phage display deep mutational scan (ProP-PD DMS): M13 P8 16-mer library selected against immobilised GST-tagged bait for four days (rounds), NGS of the eluted pools per day and pseudo-replica
Conditions: with MDM2 SWIB (MDM2 SWIB/MDM2 domain, residues 17-125); bait immobilised on MaxiSorp plates (10 µg), library pre-cleared on GST, 2 h binding at 4 °C, five washes; one round per day, days 1-4; value from days 2 and 3; keep out of graded; scale: average fractional NGS count over selection days 2 and 3

screen value	Variant
4.65e-05	chain 1 H12R
3.9e-05	chain 1 H12W
4.94e-05	chain 1 H12Y
0	chain 1 W7E
0	chain 1 W7N
0	chain 1 W7D
0	chain 1 W7K
0	chain 1 F3M
0.000115	chain 1 F3P
0	chain 1 F3K
5.94e-05	chain 1 M14I
7.54e-05	chain 1 M14K
6.33e-05	chain 1 M14R

Variants of: B2
Assay: as above
Conditions: with TNKS ANK (TNKS 12 ANK repeats, residues 174-649); bait immobilised on MaxiSorp plates (10 µg), library pre-cleared on GST, 2 h binding at 4 °C, five washes; one round per day, days 1-4; value from days 2 and 3; keep out of graded; scale: average fractional NGS count over selection days 2 and 3

screen value	Variant
7.72e-05	chain 1 A6K
4.91e-05	chain 1 A6P
5.3e-05	chain 1 A6Y
0	chain 1 T7R
7.17e-05	chain 1 T7K
6.07e-05	chain 1 T7D
3.1e-05	chain 1 Q14F
0.000146	chain 1 Q14G
2.86e-05	chain 1 Q5G
6.13e-05	chain 1 Q5W
0.000115	chain 1 Q5D
8.23e-05	chain 1 Q5N
0	chain 1 G13W
0	chain 1 G13I
0	chain 1 G13Q
9.35e-05	chain 1 E10D
7.98e-05	chain 1 E10R
7.2e-05	chain 1 E10W
5.93e-05	chain 1 Q12K

screen value	Variant
4.06e-05	chain 1 Q12R
4.55e-05	chain 1 Q9K
5.19e-05	chain 1 Q9I
7.98e-05	chain 1 Q9G
0	chain 1 R8F
0	chain 1 R8I
8.36e-05	chain 1 R8P
8.89e-05	chain 1 L3W
0	chain 1 E15K
6.84e-05	chain 1 E15G
8.3e-05	chain 1 H16K
6.49e-05	chain 1 H16G
7.99e-05	chain 1 H16F
0	chain 1 P11Q
0	chain 1 P11R
0	chain 1 P11D
5.08e-05	chain 1 P11I
0.000112	chain 1 P11G

Variants of: B3
Assay: as above
Conditions: with TLN1 PTB (TLN1 Phosphotyrosine-binding (PTB) domain, residues 309-401); bait immobilised on MaxiSorp plates (10 µg), library pre-cleared on GST, 2 h binding at 4 °C, five washes; one round per day, days 1-4; value from days 2 and 3; keep out of graded; scale: average fractional NGS count over selection days 2 and 3

screen value	Variant
9.95e-05	chain 1 A15Y
0	chain 1 A15K
0	chain 1 L11D
8.93e-05	chain 1 L11N
2.8e-05	chain 1 L11Q
8.99e-05	chain 1 L11K
3.05e-05	chain 1 L11S
0	chain 1 S9W
0	chain 1 S9K
6.87e-05	chain 1 S9E
4.86e-05	chain 1 S9Q
0	chain 1 S9L
3.45e-05	chain 1 S9V
5.79e-05	chain 1 S9Y
0	chain 1 W6Q
0	chain 1 W6H
3.45e-05	chain 1 W6G
0	chain 1 W6D
2.49e-05	chain 1 W6A
3.79e-05	chain 1 R4I
8.28e-05	chain 1 P10W
0.000108	chain 1 D2K

Variants of: B4
Assay: as above
Conditions: with PABPC1 PABC (PABPC1 PABC domain, residues 544-623); bait immobilised on MaxiSorp plates (10 µg), library pre-cleared on GST, 2 h binding at 4 °C, five washes; one round per day, days 1-4; value from days 2 and 3; scale: average fractional NGS count over selection days 2 and 3

screen value	Variant
0.000583	chain 1 S15N
4.17e-05	chain 1 S15T
0.00242	chain 1 S15L
0.000136	chain 1 S15F
0.000153	chain 1 S15A
0.000677	chain 1 S15H
0.000221	chain 1 S15I
0.000122	chain 1 S15E
0	chain 1 S15Q
5.73e-05	chain 1 S15W
0.000546	chain 1 S15V
0.000243	chain 1 S15P
0	chain 1 S15G
0.000151	chain 1 S15Y
0	chain 1 S15D
0.000543	chain 1 T3M
0.00112	chain 1 T3I
0	chain 1 T3Q
8.48e-05	chain 1 T3H
0	chain 1 T3S
0.00159	chain 1 T3E
0.00143	chain 1 T3V
0.000528	chain 1 T3G
0.000105	chain 1 T3W
0.000481	chain 1 T3F

screen value	Variant
3.57e-05	chain 1 T3Y
0	chain 1 T3K
0.000554	chain 1 S2F
0.000338	chain 1 S2A
5.2e-05	chain 1 S2L
0.000114	chain 1 S2D
0.000105	chain 1 S2E
0.000881	chain 1 S2V
0.00026	chain 1 S2H
0.00164	chain 1 S2P
0.000237	chain 1 S2G
0	chain 1 S2N
0.00018	chain 1 S2T
0.00187	chain 1 S2M
0.000118	chain 1 S2I
0.00178	chain 1 S2Y
0.000722	chain 1 R14Y
0.000569	chain 1 R14V
0.00103	chain 1 R14S
0.00156	chain 1 R14Q
0.000117	chain 1 R14N
9.46e-05	chain 1 R14M
0.00309	chain 1 R14T
0.00013	chain 1 R14P
0.00286	chain 1 R14W

Variants of: B5
Assay: as above
Conditions: with SIN3A PAH2 (SIN3A PAH domain, residues 295-383); bait immobilised on MaxiSorp plates (10 µg), library pre-cleared on GST, 2 h binding at 4 °C, five washes; one round per day, days 1-4; value from days 2 and 3; keep out of graded; scale: average fractional NGS count over selection days 2 and 3

screen value	Variant
4.27e-05	chain 1 R6F
0	chain 1 R6T
5.76e-05	chain 1 R6D
6.6e-05	chain 1 R6M
4.48e-05	chain 1 N3R
0	chain 1 N3A
5.31e-05	chain 1 N3Q
9.14e-05	chain 1 A11T
2.84e-05	chain 1 A11V
0.000105	chain 1 A11D
8.92e-05	chain 1 A11S
6.22e-05	chain 1 I2G
0	chain 1 I2K
0	chain 1 L7R
6.69e-05	chain 1 L7V
0	chain 1 L7M
6.64e-05	chain 1 L8W
7.15e-05	chain 1 L8N
7.63e-05	chain 1 L8F
4.34e-05	chain 1 L8R
2.84e-05	chain 1 L8A
4.79e-05	chain 1 F13P
1.91e-05	chain 1 F13I

screen value	Variant
1.91e-05	chain 1 A10M
0	chain 1 A10Q
0	chain 1 A10R
4.73e-05	chain 1 A10I
2.36e-05	chain 1 A10H
7.31e-05	chain 1 L14Q
0	chain 1 L14A
5.17e-05	chain 1 L14T
3.78e-05	chain 1 L14F
3.46e-05	chain 1 M1L
0	chain 1 M1T
6.67e-05	chain 1 M1A
8.47e-05	chain 1 M1H
1.91e-05	chain 1 V4P
0	chain 1 V4S
6.66e-05	chain 1 V4G
7.16e-05	chain 1 V4M
0	chain 1 V4E
0	chain 1 V4R
0	chain 1 Q5D
3.48e-05	chain 1 Q5P
6.78e-05	chain 1 Q5W
